Consider three molecules from article PMC3830201, “Swiprosin-1 modulates actin dynamics by regulating the F-actin accessibility to cofilin” (Cellular and Molecular Life Sciences: CMLS, 2013).

Substitutions are numbered along the chain they refer to. Numbers in names are those of the source.

The chains are these.
B1: GST-Swiprosin-1 fusion protein (wild type) (natural protein)
chain: MATDELATKLSRRLQMEGEGGGETPEQPGLNGAAAAAAGAPDEAAEALGSADCELSAKLLRRADLNQGIGEPQSPSRRVFNPYTEFKEFSRKQIKDMEKMFKQYDAGRDGFIDLMELKLMMEKLGAPQTHLGLKNMIKEVDEDFDSKLSFREFLLIFRKAAAGELQEDSGLCVLARLSEIDVSSEGVKGAKSFFEAKVQAINVSSRFEEEIKAEQEERKKQAEEMKQRKAAFKELQSTFK
notes: Swiprosin-1 (EF hand domain containing 2, EFHD2), human (hSwiprosin-1); Cloned into pGEX4T1; also called GST-Swiprosin-1-WT; GST-Sw-WT; source: purified GST fusion protein (pGEX4T1); also used on agarose beads
B2: GST-Swiprosin-1 S183A (phosphorylation-deficient mutant) (natural protein)
chain: B1 chain with S183A
notes: Swiprosin-1 (EFHD2), human (hSwiprosin-1); also called GST-Sw-S183A; source: purified GST fusion protein (pGEX4T1)
B3: GST-Swiprosin-1 S183E (phosphorylation-mimicking mutant) (natural protein)
chain: B1 chain with S183E
notes: Swiprosin-1 (EFHD2), human (hSwiprosin-1); also called GST-Sw-S183E; source: purified GST fusion protein (pGEX4T1)

In this assay the target is F-actin assembled from rabbit skeletal muscle G-actin (rabbit, UniProt P68135 1-377). The assay is described as follows: co-sedimentation; purified GST or GST-Swiprosin-1 proteins incubated with 5 uM G-actin in actin polymerization buffer (MgCl2, KCl, ATP) at 25 C to assemble filaments; ultracentrifuged at 45,000 rpm; supernatant and pellet by SDS-PAGE, Coomassie. Conditions: both partners purified.
As to B1, the binding result was “binds”. With B2, the binding result was “binds”.

With B3, the binding result is given as “binds”.
